Results on five substances are retold here after US9260500B2, “Peptide and use thereof” (Takeda Pharmaceutical Company Limited, priority 2009, dated 2016).

In test [1] the target is T1, human Y2 receptor (Homo sapiens, UniProt P49146).
T1 construct: expressed in transfected cells; membrane fraction
T1 sequence (P49146 1-381): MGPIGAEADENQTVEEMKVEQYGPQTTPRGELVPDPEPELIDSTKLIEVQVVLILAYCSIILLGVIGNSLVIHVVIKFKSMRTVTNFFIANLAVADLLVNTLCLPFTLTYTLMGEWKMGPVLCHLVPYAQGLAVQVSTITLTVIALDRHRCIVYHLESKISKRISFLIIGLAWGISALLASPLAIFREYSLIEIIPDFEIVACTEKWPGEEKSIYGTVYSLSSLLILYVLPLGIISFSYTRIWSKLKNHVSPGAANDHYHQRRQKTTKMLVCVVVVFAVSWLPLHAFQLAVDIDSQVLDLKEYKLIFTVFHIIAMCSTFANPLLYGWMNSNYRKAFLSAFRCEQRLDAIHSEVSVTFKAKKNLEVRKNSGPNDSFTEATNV
The experiment in a line: Receptor Binding Assay (RBA) for Human Y2, [125I]-PYY displacement on hY2R/CHO membrane fraction. Conditions: IC50 of test compound/IC50 of PYY(3-36) (PYY(3-36) taken as 1). The procedure, abridged: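 hY2R stably expressed in CHO/dhfr− cells; membrane fraction prepared from cells disrupted in 10 mM NaHCO3, 5 mM EDTA buffer with protease inhibitors. Binding read as displacement of [125I]-PYY.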

The target of test [2] is T1, human Y2 receptor. The experiment in a line: Human Y2 Receptor G Protein Binding Assay (GBA), [35S]GTPγS. Type of test: biochemical. The conditions noted are these: EC50 of test compound/EC50 of PYY(3-36) (PYY3-36 taken as 1), hY2R/CHO membrane fraction. A digest of the protocol:
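Agonism measured as [35S]GTPγS binding, read by GF/C filtration and scintillation counting after 120 min at room temperature, using human Y2 membranes at 1 μg protein/mL in pH 7.4 Tris/MgCl2/NaCl/GDP buffer. Compound serially diluted 100 μM–1 nM; EC50 normalized to PYY(3-36) (ratio = compound/PYY).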

Non-standard residues stand in square brackets, D forms with d. Lys(Me2) = CN(C)CCCC[C@H](N)C(=O)O; 4Pal = N[C@@H](Cc1ccncc1)C(=O)O; Cha = N[C@@H](CC1CCCCC1)C(=O)O; NMeS = CN[C@@H](CO)C(=O)O; Nleu = CC(C)CNCC(=O)O; Aib = CC(C)(N)C(=O)O

For “Ac-[Leu22, D-Pro24, Pya(4)26, Cha27,36, Aib28,31, Lys30]-PYY(22-36) (Ac-LS[dP]R[4Pal][Cha][Aib]NK[Aib]TRQR[Cha]-NH2; SMILES CC(=O)N[C@@H](CC(C)C)C(=O)N[C@@H](CO)C(=O)N1CCC[C@@H]1C(=O)N[C@@H](CCCNC(=N)N)C(=O)N[C@@H](Cc1ccncc1)C(=O)N[C@@H](CC1CCCCC1)C(=O)NC(C)(C)C(=O)N[C@@H](CC(N)=O)C(=O)N[C@@H](CCCCN)C(=O)NC(C)(C)C(=O)N[C@H](C(=O)N[C@@H](CCCNC(=N)N)C(=O)N[C@@H](CCC(N)=O)C(=O)N[C@@H](CCCNC(=N)N)C(=O)N[C@@H](CC1CCCCC1)C(N)=O)[C@@H](C)O) [compound No. 274]”, in the test with human Y2 receptor [1], the “RBA IC50 Ratio” value worked out at 1.2. Further, the “GBA EC50 Ratio” value in the test with human Y2 receptor [2] was determined as 1.0.

On to “Ac-[Lys22,30, D-Pro24, Pya(4)26, Cha27,36, Aib28,31]-PYY(22-36) (Ac-KS[dP]R[4Pal][Cha][Aib]NK[Aib]TRQR[Cha]-NH2; SMILES CC(=O)N[C@@H](CCCCN)C(=O)N[C@@H](CO)C(=O)N1CCC[C@@H]1C(=O)N[C@@H](CCCNC(=N)N)C(=O)N[C@@H](Cc1ccncc1)C(=O)N[C@@H](CC1CCCCC1)C(=O)NC(C)(C)C(=O)N[C@@H](CC(N)=O)C(=O)N[C@@H](CCCCN)C(=O)NC(C)(C)C(=O)N[C@H](C(=O)N[C@@H](CCCNC(=N)N)C(=O)N[C@@H](CCC(N)=O)C(=O)N[C@@H](CCCNC(=N)N)C(=O)N[C@@H](CC1CCCCC1)C(N)=O)[C@@H](C)O) [compound No. 272]”, for which the “RBA IC50 Ratio” value in the test with human Y2 receptor [1] is given as 1.1. The “GBA EC50 Ratio” value with human Y2 receptor [2] worked out at 1.0.

For “Ac-[Lys(Me2)23, D-Pro24, Cha27,28,36, Aib31]-PYY(23-36) (Ac-[Lys(Me2)][dP]RH[Cha][Cha]NL[Aib]TRQR[Cha]-NH2; SMILES CC(=O)N[C@@H](CCCCN(C)C)C(=O)N1CCC[C@@H]1C(=O)N[C@@H](CCCNC(=N)N)C(=O)N[C@@H](Cc1c[nH]cn1)C(=O)N[C@@H](CC1CCCCC1)C(=O)N[C@@H](CC1CCCCC1)C(=O)N[C@@H](CC(N)=O)C(=O)N[C@@H](CC(C)C)C(=O)NC(C)(C)C(=O)N[C@H](C(=O)N[C@@H](CCCNC(=N)N)C(=O)N[C@@H](CCC(N)=O)C(=O)N[C@@H](CCCNC(=N)N)C(=O)N[C@@H](CC1CCCCC1)C(N)=O)[C@@H](C)O) [compound No. 160]”, the “RBA IC50 Ratio” value with human Y2 receptor [1] was 0.92. In addition, the “GBA EC50 Ratio” value with human Y2 receptor [2] worked out at 1.3.

“Ac-[MeSer23, D-Pro24, Cha27,28,36, Aib31]-PYY(22-36) (Ac-A[NMeS][dP]RH[Cha][Cha]NL[Aib]TRQR[Cha]-NH2; SMILES CC(=O)N[C@@H](C)C(=O)N(C)[C@@H](CO)C(=O)N1CCC[C@@H]1C(=O)N[C@@H](CCCNC(=N)N)C(=O)N[C@@H](Cc1c[nH]cn1)C(=O)N[C@@H](CC1CCCCC1)C(=O)N[C@@H](CC1CCCCC1)C(=O)N[C@@H](CC(N)=O)C(=O)N[C@@H](CC(C)C)C(=O)NC(C)(C)C(=O)N[C@H](C(=O)N[C@@H](CCCNC(=N)N)C(=O)N[C@@H](CCC(N)=O)C(=O)N[C@@H](CCCNC(=N)N)C(=O)N[C@@H](CC1CCCCC1)C(N)=O)[C@@H](C)O) [compound No. 129]”: in the test with human Y2 receptor [1], the “RBA IC50 Ratio” value came out at 12. The “GBA EC50 Ratio” value in the test with human Y2 receptor [2] is reported as 7.8.

In the case of “Ac-[N(iBu)Gly24, Cha27,28,36, Aib31]-PYY(23-36) (Ac-S[Nleu]RH[Cha][Cha]NL[Aib]TRQR[Cha]-NH2; SMILES CC(=O)N[C@@H](CO)C(=O)N(CC(=O)N[C@@H](CCCNC(=N)N)C(=O)N[C@@H](Cc1c[nH]cn1)C(=O)N[C@@H](CC1CCCCC1)C(=O)N[C@@H](CC1CCCCC1)C(=O)N[C@@H](CC(N)=O)C(=O)N[C@@H](CC(C)C)C(=O)NC(C)(C)C(=O)N[C@H](C(=O)N[C@@H](CCCNC(=N)N)C(=O)N[C@@H](CCC(N)=O)C(=O)N[C@@H](CCCNC(=N)N)C(=O)N[C@@H](CC1CCCCC1)C(N)=O)[C@@H](C)O)CC(C)C) [compound No. 108]”, in the test with human Y2 receptor [1], the “RBA IC50 Ratio” value was 20. Moreover, the “GBA EC50 Ratio” value with human Y2 receptor [2] is listed as 8.4.
